Assay results published in patent publication US8465981B2, “Polypeptides, systems, and methods useful for detecting glucose” (University of Kentucky Research Foundation, priority 2007, dated 2013).

Columns and labels:
Assay type in all cases: binding
[1] = Fragments of wtGBP in response to glucose: fluorescence quenching of labeled tGBPs; conditions: labeled tGBP 1×10^-7 M
Procedure: (§1) Once the PCR amplified gene fragments were obtained, they were inserted into expression vector pQE70. The constructed expression plasmids were then transformed into the auxotrophic strain of E. coli. Protein expression was performed using medium shift method. A single freshly transformed colony was used to inoculate 5 mL of M9 media supplemented with 0.4% glucose; 1 mM MgSO4; 0.1 mM CaCl2; 1 mM Thiamine; 0.1 volume of a solution containing 0.01% (w/v) each of 20 amino acids, less any amino acid that is to be replaced by unnatural amino acids (e.g., each of 19 amino acids where one is to be replaced); 40 μg/mL of the remaining amino acid(s) (e.g., 20th amino acid), and appropriate amount of antibiotic. T his culture was allowed to grow overnight at 37° C., 250 rpm. 500 mL culture containing the same ingredients was inoculated with the overnight grown 5 mL culture. This culture was then grown until the optical density (OD600) was about 0.5. The cells were then centrifuged at 10000 rpm for 10 min, 25° C., the supernatant was discarded and the cells were resuspended in a 0.9% NaCl solution for washing, and this was repeated three times. The cells were then resuspended in 500 mL M9 minimal media which was supplemented with 0.4% glucose, 1 mM MgSO4, 0.1 mM CaCl2, 1 mM Thiamine, 0.1 volume of a solution containing 0.01% (w/v) each of 20 amino acids less any amino acid(s) to be replaced by unnatural amino acids (e.g., 19 amino acids), appropriate amount of antibiotic, and grown at 37° C. for 30 min to further deplete natural amino acid that has to be replaced by the unnatural amino acid. 1 mM IPTG was then added with 0.1 mM of unnatural amino acid to the culture and was grown overnight at 37° C. The cells were harvested by centrifugation and the protein was purified using Ni-NTA resin since GBP mutant has His-tag. The purified protein was then labeled with fluorophore MDCC (N-[2-(1-maleimidyl(ethyl]-7-(diethylamino)coumarin-3-carboxamide), e.g., labeled at cysteine-152 of SEQ ID NO: 1.
Fragments of wtGBP in Response to Glucose. In order to check for activity of the labeled tGBPs, an assay was performed. Upon glucose binding, the proteins should undergo a conformational change, resulting in a change in the local environment of the fluorophore molecule, which leads to a change in the fluorescence signal observed. The assay was carried out by preparing glucose solutions of concentrations ranging from 1×10^−1M to 1×10^−6M. These glucose standards were then added to 180 μL samples of the labeled tGBPs at a concentration of 1×10^−7M. The resulting fluorescence intensity was measured. The results obtained from one study including the isolated polypeptide molecules of SEQ ID NO: 2 (tGBP1) and SEQ ID NO: 3 (tGBP2) are presented in Table C.

[2] = Fluorescence response to glucose of MDCC-labeled fragment amino acids 87-271 of wtGBP
Description: Expression and Labeling of Isolated Polypeptide Molecules. In order to obtain the gene for insertion into an expression vector, PCR amplification was employed. Primers were designed to amplify isolated polypeptide molecules of interest, e.g., polypeptide molecules of SEQ ID NOS: 1-7, and a fragment including amino acids 87-271 of SEQ ID NO: 1.
as §1

[3] = Unnatural analogues of wtGBP in response to glucose: fluorescence dose response; conditions: labeled protein 5×10^-7 M, glucose 10^-2 M-10^-8 M, 15 min, room temperature
Description: Unnatural Analogues of wtGBP with Unnatural Tryptophans. Unnatural analogues of wtGBP from E. coli were produced, where natural tryptophans were replaced with unnatural tryptophans. Tryptophan auxotrophic strain of E. coli (#27873) was obtained. Plasmid placI and plasmid pQE70 containing the genetic sequence of the wtGBP mutated at 152 (containing a cysteine in this position for fluorophore attachment) were transformed into the tryptophan auxotrophic strain of E. coli. Protein expression was performed using medium shift method. A single freshly transformed colony was used to inoculate 5 mL of M9 media supplemented with 0.4% glucose, 1 mM MgSO4, 0.1 mM CaCl2, 1 mM Thiamine, 0.1 volume of a solution containing 0.01% (w/v) each of 18 amino acids (less Trp and Leu), 40 μg/mL Leu, 40 μg/mL Trp, 100 μg/mL Ampicillin, and 35 μg/mL Chloramphenicol.
This culture was allowed to grow overnight at 37° C., 250 rpm. 500 mL culture containing the same ingredients was inoculated with the overnight grown 5 mL culture. This culture was then grown till the optical density (OD600) was about 0.5. […]
Unnatural Analogues of wtGBP in Response to Glucose. […] Fluorescence of the samples was then measured using a Carry Eclipse Fluorimeter.

| Molecule | Percent Fluorescence Quenching ([1]; Glucose 1 × 10^-1 M) [%] | Percent Fluorescence Quenching ([1]; Glucose 1 × 10^-2 M) [%] | Percent Fluorescence Quenching ([1]; Glucose 1 × 10^-3 M) [%] | Percent Fluorescence Quenching ([1]; Glucose 1 × 10^-4 M) [%] | Percent Fluorescence Quenching ([1]; Glucose 1 × 10^-5 M) [%] | Percent Fluorescence Quenching ([1]; Glucose 1 × 10^-6 M) [%] | Change in fluorescence intensity with increasing concentrations of glucose [3] | also measured |
| --- | --- | --- | --- | --- | --- | --- | --- | --- |
| tGBP1: fragment of wtGBP from E. coli including amino acids 14-296 of SEQ ID NO: 1 | 20.37 | 14.61 | 7.5538 | 2.433 | 2.908 | −0.09539 |  |  |
| fragment containing amino acids 87-271: fragment containing amino acids 87-271 of wtGBP from E. coli (SEQ ID NO: 1) (protein, E. Coli) VVFFNKEPSRKALDSYDKAYYVGTDSKESGIIQGDLIAKHWAANQGWDLNKDGQIQFVLLKGEPGCPDAEARTTYVIKELNDKGIKTEQLQLDTAMWDTAQAKDKMDAWLSGPNANKIEVVIANNDAMAMGAVEALKAHNKSSIPVFGVDALPEALALVKSGALAGTVLNDANNQAKATFDLAKN |  |  |  |  |  |  |  | Fluorescence Intensity (AVG) ([2]; Glucose Concentration 0 M): 485.282; Fluorescence Intensity (AVG) ([2]; Glucose Concentration 1.00E-03 M): 468.792; Fluorescence Intensity (AVG) ([2]; Glucose Concentration 1.00E-04 M): 467.383; Fluorescence Intensity (AVG) ([2]; Glucose Concentration 1.00E-05 M): 478.877; Fluorescence Intensity (AVG) ([2]; Glucose Concentration 1.00E-06 M): 497.146; Fluorescence Intensity (AVG) ([2]; Glucose Concentration 1.00E-07 M): 463.041; Fluorescence Intensity (AVG) ([2]; Glucose Concentration 1.00E-08 M): 442.682; Response to glucose (trend of fluorescence) ([2]; glucose 0 to 1.00E-03 M): large error and no clear trend in response to glucose |
| SEQ ID NO: 3, where all natural tryptophans are replaced with 5-fluorotryptophans: unnatural analogue fragment of wtGBP, MDCC labeled (protein, all Trp to 5-fluorotryptophan; MDCC label; E. Coli, unnatural analogue fragment of wtGBP, MDCC labeled) DNFMSVVRKAIEQDAKAAPDVQLLMNDSQNDQSKQNDQIDVLLAKGVKALAINLVDPAAAGTVIEKARGQNVPVVFFNKEPSRKALDSYDKAYYVGTDSKESGIIQGDLIAKHWAANQGWDLNKDGQIQFVLLKGEPGHPDAEARTTYVIKELNDKGIKTEQLQLDTAMWDTAQAKDKMDAWLSGPNANKIEVVIANNDAMAMGAVEALKAHNKSSIPVFGVDALPEALALVKSGALAGTVLN |  |  |  |  |  |  | dose-dependent change in fluorescence intensities |  |
| SEQ ID NO: 3, where all natural leucines are replaced with 5,5,5-trifluoroleucines: unnatural analogue fragment of wtGBP, MDCC labeled (protein, all Leu to 5,5,5-trifluoroleucine; MDCC label; E. Coli, unnatural analogue fragment of wtGBP, MDCC labeled) DNFMSVVRKAIEQDAKAAPDVQLLMNDSQNDQSKQNDQIDVLLAKGVKALAINLVDPAAAGTVIEKARGQNVPVVFFNKEPSRKALDSYDKAYYVGTDSKESGIIQGDLIAKHWAANQGWDLNKDGQIQFVLLKGEPGHPDAEARTTYVIKELNDKGIKTEQLQLDTAMWDTAQAKDKMDAWLSGPNANKIEVVIANNDAMAMGAVEALKAHNKSSIPVFGVDALPEALALVKSGALAGTVLN |  |  |  |  |  |  | dose-dependent change in fluorescence intensities |  |
| tGBP2: fragment of wtGBP from E. coli including amino acids 14-256 of SEQ ID NO: 1 (protein, E. Coli) DNFMSVVRKAIEQDAKAAPDVQLLMNDSQNDQSKQNDQIDVLLAKGVKALAINLVDPAAAGTVIEKARGQNVPVVFFNKEPSRKALDSYDKAYYVGTDSKESGIIQGDLIAKHWAANQGWDLNKDGQIQFVLLKGEPGHPDAEARTTYVIKELNDKGIKTEQLQLDTAMWDTAQAKDKMDAWLSGPNANKIEVVIANNDAMAMGAVEALKAHNKSSIPVFGVDALPEALALVKSGALAGTVLN | 6.266 | 7.502 | 8.966 | 5.874 | 2.795 | 1.748 |  |  |
